Results published in US7011817B2, “Hydrophilic cyanine dyes” (Mallinckrodt Inc., priority 2000, dated 2006).

Experiments:
[1] = test system: Pancreatic Ductal Adenocarcinoma (DSL 6A); assay: In vivo fluorescence imaging of DSL 6A tumors in rats; design: species or system male Lewis rats
Excerpt: (§1) A non-invasive in vivo fluorescence imaging apparatus was employed to assess the efficacy of contrast agents developed for tumor detection in animal models. A LaserMax Inc. laser diode of nominal wavelength 780 nm and nominal power of 40 mW was used. The detector was a Princeton Instruments model RTE/CCD-1317-K/2 CCD camera with a Rodenstock 10 mm F2 lens (stock #542.032.002.20) attached. An 830 nm interference […] (CVI Laser Corp., part # F10-830-4-2) was mounted in front of the CCD input lens such that only emitted fluorescent light from the contrast agent was imaged. Typically, an image of the animal was taken pre-injection of contrast agent. This image was subsequently subtracted (pixel by pixel) from the post injection images. However, the background subtraction was […] done once the animal had been removed from the sample area and returned at a later time for images taken several hours post injection.
DSL 6A tumors were induced in male Lewis rats in the left flank area by the introduction of material from a solid (donor) implant, and the tumors were palpable in approximately 14 days. The animals were anesthetized with xylazine:ketamine:acepromazine, 1.5:1.5:0.5 at 0.8 mL/kg via intramuscular injection. The area of the tumor (left flank) was shaved to expose the tumor and the surrounding surface area. […]

[2] = test system: Prostatic Carcinoma (R3327-H); assay: In vivo fluorescence imaging of prostatic carcinoma R3327-H in rats; design: species or system male Copenhagen rats
Excerpt: as §1
The imaging apparatus and the procedure used are described as in Example 12. Prostate tumors (Dunning R3327-H) were induced in young male Copenhagen rats in the left flank area from a solid implant. These tumors grow very slowly and palpable masses were present 4-5 months post implant. FIGS. 7C-D are images of a rat with an induced prostatic carcinoma tumor (R3327-H) imaged at two minutes (FIG. 7C) and 30 minutes (FIG. 7D) post injection.

[3] = test system: Rat pancreatic acinar carcinoma expressing the SST-2 receptor (CA20948); assay: In vivo fluorescence imaging of pancreatic acinar carcinoma CA20948 in rats
Excerpt: as §1
The imaging apparatus and the procedure used are described in Example 12. Rat pancreatic acinar carcinoma expressing the SST-2 receptor (CA20948) was induced by solid implant technique in the left flank area, and palpable masses were detected nine days post implant. The images obtained at 2 and 30 minutes post injection are shown in FIGS. 7E-F. FIGS. 7E-F are images of a rat with an induced pancreatic acinar carcinoma (CA20948) expressing the SST-2 receptor imaged at two minutes (FIG. 7E) and 30 minutes (FIG. 7F) post injection.
The imaging apparatus and the procedure used are described in Example 12, except that each animal received 500 μl of a 1.0 mg/mL solution of Cytate 1 solution of 25% dimethylsulfoxide in water.
Rat pancreatic acinar carcinoma expressing the SST-2 receptor (CA20948) were induced by solid implant technique in the left flank area, and palpable masses were detected 24 days post implant. Images were obtained at various times post injection.
Cytate 1 was evaluated in the CA20948 Lewis rat model. […] At 27 hours post injection, the animal was again imaged (FIG. 9B).

[4] = Monitoring of the blood clearance profile of peptide-dye conjugates; format: in vivo, Sprague-Dawley or Fischer 344 rats; conditions: rat ear; monitored at 830 nm after excitation at 780 nm
Excerpt: A laser of appropriate wavelength for excitation of the dye chromophore was directed into one end of a fiber optic bundle and the other end was positioned a few millimeters from the ear of a rat. A second fiber optic bundle was also positioned near the same ear to detect the emitted fluorescent light and the other end was directed into the optics and electronics for data collection. An interference filter (IF) in the collection optics train was used to select emitted fluorescent light of the appropriate wavelength for the dye chromophore.
Sprague-Dawley or Fischer 344 rats were used in these studies. The animals were anesthetized with urethane administered via intraperitoneal injection at a dose of 1.35 g/kg body weight. After the animals had achieved the desired plane of anesthesia, a 21 gauge butterfly with 12″ tubing was placed in the lateral tail vein of each animal and flushed with heparinized saline. The animals were placed on a heating pad and kept warm throughout the entire study. The lobe of the left ear was affixed to a glass microscope slide to reduce movement and vibration.
Incident laser light delivered from the fiber optic was centered on the affixed ear. Data acquisition was then initiated, and a background reading of fluorescence was obtained prior to administration of the test agent. For Cytates 1 or 2, the peptide-dye conjugate was administered to the animal through a bolus injection, typically 0.5 to 2.0 mL, in the lateral tail vein. This procedure was repeated with several dye-peptide conjugates in normal and tumor-bearing rats. Representative profiles as a method to monitor blood clearance of the peptide-dye conjugate in normal and tumor-bearing animals are shown in FIGS. 12 to 16. The data were analyzed using a standard sigma plot software program for a one-compartment model.

[5] = Imaging of individual organs removed from CA20948 tumor-bearing rat; format: in vivo; conditions: about 24 hours post administration
Description: Individual organs were removed at about 24 hours post Cytate 1 administration and imaged.

## CC1(C)C(/C=C/C=C/C=C/C=C2\N(CCCCS(=O)(=O)O)c3ccc4ccccc4c3C2(C)C)=[N+](CCCCS(=O)(=O)[O-])c2ccc3ccccc3c21 [ICG, indocyanine green]
[1]; 30 minutes post-ICG injection, DSL 6A tumor, 500 μL of 0.42 mg/mL in water, tail vein
  dye intensity in the tumor: considerably diminished
[1]; DSL 6/A (pancreatic) tumor line
  perfusion of the agent into the tumor: slow perfusion of the agent over time into the tumor
[2]; 30 minutes post-ICG injection, R3327-H tumor
  dye intensity in the tumor: considerably diminished
[2]; Dunning R3327H (prostate) tumor line
  perfusion of the agent into the tumor: slow perfusion of the agent over time into the tumor
[3]; 30 minutes post-ICG injection, CA20948 tumor
  dye intensity in the tumor: considerably diminished and almost absent
[3]; 45 minutes post injection, CA20948 tumor
  dye fluorescence in the tumor at 45 minutes: mostly cleared
[3]; CA20948 (pancreatic) tumor line
  perfusion of the agent into the tumor: only a slight but transient perfusion that was absent after only 30 minutes post injection

## C[C@@H](O)[C@H](NC(=O)[C@@H]1CSSC[C@H](NC(=O)[C@@H](Cc2ccccc2)NC(=O)CCN2C(=CC=CC=CC=CC3=[N+](CCC(=O)N[C@H](Cc4ccccc4)C(=O)N[C@H]4CSSC[C@@H](C(=O)N[C@H](C(=O)O)[C@@H](C)O)NC(=O)[C@H]([C@@H](C)O)NC(=O)[C@H](CCCCN)NC(=O)[C@@H](Cc5c[nH]c6ccccc56)NC(=O)[C@H](Cc5ccc(O)cc5)NC4=O)c4ccc5ccccc5c4C3(C)C)C(C)(C)c3c2ccc2ccccc32)C(=O)N[C@@H](Cc2ccc(O)cc2)C(=O)N[C@H](Cc2c[nH]c3ccccc23)C(=O)N[C@@H](CCCCN)C(=O)N[C@@H]([C@@H](C)O)C(=O)N1)C(=O)O [Cytate 2, bisOctreotate-Bisethylcarboxymethylindocyanine dye]
[4]
  blood fluorescence signal after bolus injection (rise): rapidly increased to a peak value
  blood fluorescence signal after the peak (clearance): decayed as a function of time

## C[C@@H](O)[C@H](NC(=O)[C@@H]1CSSC[C@H](NC(=O)[C@@H](Cc2ccccc2)NC(=O)CC[N+]2=C(/C=C/C=C/C=C/C=C3/N(CCC(=O)O)c4ccc5ccccc5c4C3(C)C)C(C)(C)c3c2ccc2ccccc32)C(=O)N[C@@H](Cc2ccc(O)cc2)C(=O)N[C@H](Cc2c[nH]c3ccccc23)C(=O)N[C@@H](CCCCN)C(=O)N[C@@H]([C@@H](C)O)C(=O)N1)C(=O)O [Cytate 1, monoOctreotate-Bisethylcarboxymethylindocyanine dye]
[5]
  organ uptake: adrenals: high uptake
  organ uptake: heart: significantly lower uptake
  organ uptake: liver: significantly lower uptake
  organ uptake: muscle: significantly lower uptake
  organ uptake: pancreas: high uptake
  organ uptake: spleen: significantly lower uptake
  organ uptake: tumor tissue: high uptake
[4]
  blood fluorescence signal after bolus injection (rise): rapidly increased to a peak value
  blood fluorescence signal after the peak (clearance): decayed as a function of time
